The source of these data is patent publication US7666414B2.

The target in this experiment is prostate specific membrane antigen (PSMA) on LNCaP cells (human) (UniProt Q04609).

irrelevant IgG antibody displayed a tumor uptake of the 131I-labelled antibody in nude mice bearing LNCaP tumors, one day post injection (% injected dose/gram) (% injected dose/gram) of 4.41.
